Laboratory results published in patent US20260258115A1 (MAPP BIOPHARMACEUTICAL, published 2026).

Experiments:
[1] = biological target: RSV prefusion F (preF), DS-Cav1 (Respiratory Syncytial Virus, UniProt P03420 26-513); assay: BLI, IgG on anti-human IgG sensor, 100 nM antigen, 1:1 fit
RSV F on RSV-A2 virus = RSV F on RSV-A2 virus (Respiratory Syncytial Virus (RSV-A2), UniProt P03420 26-574); assay: cell-based or functional assay
[2] = biological target: RSV postfusion F (postF), F ΔFP (Respiratory Syncytial Virus, UniProt P03420 26-513); assay: BLI, IgG on anti-human IgG sensor
[3] = biological target: RSV F on recombinant mKate-RSV B 18537 virus (Respiratory syncytial virus B 18537, UniProt P13843 26-574); assay: cell-based or functional assay
[4] = biological target: T1, RSV postfusion F, subtype B (postF trimer) (Respiratory syncytial virus subtype B, UniProt P13843 26-513); assay: BLI, IgG apparent affinity
T1 construct: also called Postfusion subtype B

[5] = biological target: T2, RSV postfusion F, subtype A (postF, F ΔFP trimer) (Respiratory syncytial virus subtype A, UniProt P03420 26-513); assay: BLI, IgG apparent affinity
T2 construct: also called Postfusion subtype A

[6] = biological target: RSV prefusion F, subtype A (preF, DS-Cav1 trimer) (Respiratory syncytial virus subtype A, UniProt P03420 26-513); assay: BLI, IgG apparent affinity

B1: ADI-41517 (antibody, V domains shown)
VH: QVQLVQSGGGLVQPGGSLRLACAASGFTLSGYAMNWVRQAPGKGLEWVSSISGSGGSTYYADSVKGRFTTSRDNSKNTVFLHMNSLRAEDTAIYYCATVPWETGPFDHWGQGTLVTVSS
VL: QSVLTQPPSVSGAPGQRVTISCTGSSSNIGAGYAVHWYQQLPGTAPKLLIHGTTNRPSGVPDRFSGSKSGTSASLAITGLQAEDEADYYCQSYDSRLSGYVFGTGTKLTVL
Kd [1]: 0.501 nM | Neutralization IC50 (RSV subtype A) (RSV F on RSV-A2 virus): 0.02 µg/mL | binding result [2]: no binding

B2: ADI-41521 (antibody, V domains shown)
VH: EVQLVESGGGLVQPGRSLRLSCAASGFTFDDFAMDWVRQVPGKGLEWVSGISWNGVSKDYAGSVKGRFTISRDNAKNSLYLQMNSLRAEDTALYFCAKARRDVYNWGDAFDIWGQGTMVTVSS
VL: DIRLTQSPGTLSLSPGERATLSCRASQPLNSNYLAWYRQKPGQAPRLLIFDASSRATGVPDRISGSGSGTDFTLTVSRLEPEDIAVYYCQQYASSPWTFGLGTKVEIK
Kd [1]: 1.68 nM | Neutralization IC50 (RSV subtype A) (RSV F on RSV-A2 virus): > 25 µg/mL | binding result [2]: no binding

B3: ADI-43646 (antibody, V domains shown)
VH: EMQLMQSGGVVVQPGGSLRLSCAASGFTFDDYAMHWVRQAPGKGLEWVSLISWDGGSTYYADSVKGRFTISRDNSKNSLYLQMNSLRAEDTALYYCAKDFDPLVVPAAMCFDYWGQGTLVTVSS
VL: QSVLIQPASVSGSPGQSITISCTGTSSDVGGYNYVSWYQQHPGKAPKLMIYDVSNRPSGVSNRFSGSKSGNTASLTISGLQAEDEADYYCSSYTSSSTLYVFGTGTKLTVL
Kd [1]: 5.34 nM | Neutralization IC50 (RSV subtype A) (RSV F on RSV-A2 virus): > 25 µg/mL | binding result [2]: no binding

B4: ADI-43645 (antibody, V domains shown)
VH: QVQLVQSGAEVKKPGSSVKVSCKASGGTFSSYAISWVRQAPGQGLEWMGGIIPIFGTANYAQKFQGRVTITADESTSTAYMELSSLRSEDTAVYYCARGWRGGGMTGSYYYYGMDVWGQGTTVTVSS
VL: DIQVTQTPSTLSASVGDRVTITCRASQSISSWLAWYQQKPGKAPKLLIYKASSLESGVPSRFSGSGSGTEFTLTISSLQPDDFATYYCQQHRGTFGQGTKVDIK
notes: also called Ab 826; Antibody Number 826
Kd [1]: 8.7 nM | Neutralization IC50 (RSV subtype A) (RSV F on RSV-A2 virus): > 25 µg/mL | binding result [2]: no binding

B5: ADI-41491 (antibody, V domains shown)
VH: EVQLLESGGGLVQPGGSLRLSCAASGFTFSSYSMNWVRQAPGKGLEWVSYMSSDRSAIYYSDSVKDRFTISRDNAKNSLYLQMHSLRAEDTAVYYCARRYCSSTSCYRGLGYYYGMDVWGQGTTVTVSS
VL: SYELTQPPSVSVAPGQTARITCGGSNIGNKDVHWYQQKPGQAPVLVVYDDSDRPSGIPERFAGSNSGNTATLTISRVEAGDEADYYCQVWHSAGDHVVFGGGTKLTVL
Kd [1]: 0.439 nM | Neutralization IC50 (RSV subtype A) (RSV F on RSV-A2 virus): > 25 µg/mL | binding result [2]: no binding

B6: ADI-41501 (antibody, V domains shown)
VH: QVQLVQSGAEVKKPGSSVKVSCKASGGIFSDFAISWVRQAPGQGLEWMGGIITIIGTPEYAQKFQGRVRITADESTTTVFMELSRLTSEDTAVYYCARDSRYGSGWYWDHWGQGTLVTVSS
VL: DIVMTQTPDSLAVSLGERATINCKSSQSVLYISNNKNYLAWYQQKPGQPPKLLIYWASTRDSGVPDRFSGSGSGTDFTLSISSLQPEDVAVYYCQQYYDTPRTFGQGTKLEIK
notes: also called Ab 780; Antibody Number 780
Kd [1]: 3.21 nM | Neutralization IC50 (RSV subtype A) (RSV F on RSV-A2 virus): > 25 µg/mL | binding result [2]: no binding

B7: ADI-21070 (antibody, V domains shown)
VH: EVQLVESGGGLVQPGGSLRLSCAASGFTFSRYAMGWVRQAPGKGLEWVSTISDSGGSTFYADSVEGRFTIARDSSKNTLSLHMNSLRAEDTAIYYCAREAYSSSWYSGGWFDRWGQGTLVTVSS
VL: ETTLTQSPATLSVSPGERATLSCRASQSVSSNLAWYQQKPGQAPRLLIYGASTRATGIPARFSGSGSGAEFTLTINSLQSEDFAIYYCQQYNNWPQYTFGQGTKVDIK
Neut IC50 (ug/ml) subtype B [3]: 2.38 µg/mL | binding result [4]: no binding | binding result [5]: no binding | Kd [6]: 5.37 nM

B8: ADI-21071 (antibody, V domains shown)
VH: EVQLVESGGGVVQPGKSLRLSCAVSGFTFSDHDMHWVRQAPGKGLEWVAAIWSDRTTKYYGDFVKGRFTISRDNSKNTLYLQMNSLRAEDTAVYYCARGQIYKSGGYYLVHLDHWGQGTLVTVSS
VL: DIQVTQSPSSLSASVGDRVTITCRASQSIASYLNWYQQKPGKAPNLLIYAASNLQSEVPSRFSGSGSGTDFTLTISGLQPEDFATYYCQQSYNIRLLTFGGGTKVEIK
Kd [4]: 1.38 nM | Kd [5]: 0.216 nM | Kd [6]: 1.17 nM

B9: ADI-41524 (antibody, V domains shown)
VH: EVQLVESGGGLVQPGRSLRLSCTGSGFTFGDYAISWFRQAPGKGLEWVGFIRSKPYGGTTEYAASVKGTFTISRDDSKSIAYLQMNSLKTGDTAVYFCTRGIWGITMIVPWSDPWGQGTLVTVSS
VL: DIVMTQTPLSLPVTPGEPASISCRSSQSLLHSNGFNYLAWYLQKPGQSPQLLIYLNSNRASGVPDRFSGSGSGTDFTLKISRVEAEDVGVYYCMQALQTPLTFGPGTKLEIK
Kd [1]: 3.18 nM | Neutralization IC50 (RSV subtype A) (RSV F on RSV-A2 virus): > 25 µg/mL | binding result [2]: no binding

B10: ADI-43644 (antibody, V domains shown)
VH: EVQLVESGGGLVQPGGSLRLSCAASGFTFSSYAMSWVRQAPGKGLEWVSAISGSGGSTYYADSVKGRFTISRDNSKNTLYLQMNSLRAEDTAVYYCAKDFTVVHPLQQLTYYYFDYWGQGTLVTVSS
VL: DIVLTQSPATLSLSPGERATLSCRASQSVSSYLAWYQQKPGQAPRLLIYDASNRATGIPARFSGSGSGTDFTLTISSLEPEDFAVYYCQQRSNWPPGFTFGGGTKVEIK
Kd [1]: 29.3 nM | Neutralization IC50 (RSV subtype A) (RSV F on RSV-A2 virus): > 25 µg/mL | binding result [2]: no binding

B11: ADI-41523 (antibody, V domains shown)
VH: QVQLVQSGAEVKKPGESLRISCKGSGDTFSNYWIGWVRQMPGKGLEWMGIIYPGDSDTRYSPSFQGQVTFSADKSISTAYLQWSSLKASDTAMYYCVRQVGGVVVTDTDNYYYGMDVWGQGTTVTVSS
VL: DIRLTQSPSSLSASVGDRVTITCRASQSIRSYLNWYQQKPGKAPKLLIYSASSLQSGVPSRFSGSGSGTDFTLTISSLQPEDFATYYCQQSHSTPLTFGPGTKVDIK
Kd [1]: 2.91 nM | Neutralization IC50 (RSV subtype A) (RSV F on RSV-A2 virus): > 25 µg/mL | binding result [2]: no binding

B12: ADI-21073 (antibody, V domains shown)
VH: EVQLVESGGGLVRPGRSLRLSCAASGFTFSMFSMNWVRQAPGKGLEWLAYIGGSGSTIDYANSVSGRFTISRDNAKNSLYLQMNSLRDEDTAVYYCARIGLQTYNSHSSSSSPARAFDVWGQGTTVTVSS
VL: DIVLTQSPSSLSASVGDRVTITCRASQSIGRFLNWYQQKPGKAPKLLIYAASSLESGVPSRFSGSGSGTQFSLTISSLQPEDFTTYYCQQSYSTPTTFGGGTKVDIK
Neut IC50 (ug/ml) subtype B [3]: 11.2 µg/mL | Kd [4]: 0.675 nM | Kd [5]: 0.58 nM | Kd [6]: 4.06 nM

B13: ADI-21090 (antibody, V domains shown)
VH: EVQLLESGGGLVKPGGSLRLSCAASGFTSGFTFSDFYMSWIRLTPGKGLEWISYISTHSTSTNYADSVRGRFIISRDDARNSLFLQMNSLRAEDTAVYYCAGYYYGSGSYFFDHWGQGTLVTVSS
VL: ETTLTQSPATLSVSPGERATLSCRASQSVSSNVAWYQQKPGQAPRLLIYSASSRDTGIPVRFSGSGSGTEFTLSISSLQSEDFAVYYCQQYSDWPTFGQGTKVEIK
Kd [4]: 0.175 nM | Kd [5]: 0.176 nM | Kd [6]: 1.17 nM

B14: ADI-21087 (antibody, V domains shown)
VH: EVQLVESGGGLVQPGGSLRLSCAASGFTFSGYEMNWVRQAPGKGLEWLSYISSSGGIIYYADSVKGRFTISRDNARNSLFLQMNSLRAEDTAVYSCARARLLDGFDIWGQGTMVTVSS
VL: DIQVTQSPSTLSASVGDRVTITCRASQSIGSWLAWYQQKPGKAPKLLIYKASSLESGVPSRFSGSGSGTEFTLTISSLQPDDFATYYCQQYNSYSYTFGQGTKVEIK
Kd [4]: 0.476 nM | Kd [5]: 0.545 nM | binding result [6]: no binding

B15: ADI-41516 (antibody, V domains shown)
VH: EVQLLESGPRLVKPSETLSLTCIVSGGFISYDYWSWIRQPAGKGLEWIGRIYAGGIPKYNPSLKSRVTMSLDMSNNQFSLRLKSVTAADSAVYYCARAEPCSGDCFLGENPFDSWGQGTLVTVSS
VL: QSVLTQPPSASGTPGQRVTISCSGSSSSIGSNYVYWYQQLPGTAPKLLIHKDNERPSGVPDRFSGSKSGTSASLAISGLRSEDEGDYSCAAWDDSLSGWVFGGGTKLTVL
Kd [1]: 0.414 nM | Neutralization IC50 (RSV subtype A) (RSV F on RSV-A2 virus): 0.08 µg/mL | binding result [2]: no binding
